According to patent US20150064177A1 (ELAN PHARMACEUTICALS, published 2015):

Molecular target: T1, human α4β1 integrin (human, UniProt P13612 34-1032; P05556 21-798)
T1 construct: whole, on cells; In the ELISA it is on transformed L cells; In the adhesion assays it is on human U937 monocytic cells and human Jurkat T cells; also called VLA-4; alpha-4-beta-1 integrin
Assay: cell ELISA of crude Cos supernatants on L cells expressing α4β1 integrin
Method: Briefly, L cells transformed to express a4β1 integrin on their cell surface were plated out and grown to confluence in 96-well tissue culture plates. The samples to be tested (either crude supernatants or protein-A-purified) were serially diluted and added to each well. After incubation for 1 h on ice and very gentle washing, goat anti-mouse or anti-human (gamma-chain specific) peroxidase conjugates (Sigma) were added. After a further 1 h incubation on ice and very gentle washing, the substrate (o-phenylenediamine dihydrochloride, Sigma) was added. After incubation for 30 min at room temperature, the reaction was stopped by adding 1 M H₂SO₄, and the A₄₉₀ was measured.

binding result: binds
B1: reshaped human 21.6 antibody (La+Ha) (antibody, human IgG1, V domains shown)
VH: QVQLVQSGAEVKKPGASVKVSCKASGFNIKDTYIHWVRQAPGQRLEWMGRIDPANGYTKYDPKFQGRVTITADTSASTAYMELSSLRSEDTAVYYCAREGYYGNYGVYAMDYWGQGTLVTVSS
VL: DIQMTQSPSSLSASVGDRVTITCKTSQDINKYMAWYQQTPGKAPRLLIHYTSALQPGIPSRFSGSGSGRDYTFTISSLQPEDIATYYCLQYDNLWTFGQGTKVEIK
notes: Human IgG1 kappa, expressed in Cos cells; not shown: human gamma-1 heavy chain constant region; human kappa light chain constant region
